Laboratory results from patent publication US12329806B2, “Compound for modulating rlr, tlr, oas and/or oncostatin m pathways, use thereof for preparing a medicine, composition, method for modulating said pathways and method of treatment” (Instituto Butantan, priority 2018, dated 2025).

Tested on: Equine melanoma tumors
Assay: RNA-Seq transcriptomic analysis (DEGs, EdgeR) of treated equine melanoma tumors excised 6 h and 12 h after injection
Format: in vivo, Equus caballus
Description: Equine melanoma tumors were used in experiments with the administration of the compound of the invention, for transcriptomic analysis at different points in time. This translational experiment was carried out at Sao Joaquim Farm (SP) and the samples were transported to the Instituto Butantan, in the city of Sao Paulo. The experiment was designed with non-treated control samples at 0 h (PBS) and the treated tumors were excised 6 h and 12 h after the injection of 1 mg of polypeptide per kg of tumor. For each time point, two tumors were removed from three different animals, producing six tumors per time point. All 18 cDNA libraries were prepared following Illumina's TruSeq® RNA Preparation Kit Kits v2 protocol, and then sequenced using HiSeq 1500 Illumina technology, generating 2×100 bp chain-specific paired readings. The raw sequencing readings had the contaminants removed with bowtie2 2.2.5, and then trimmomatic was used for quality control of the sequences, to cut and remove readings with regions of low complexity and enriched with homopolymers, poly-A/T/N tails, low quality adapter strings and bases, with the fastq-mcf 1.04.662 software. The readings were filtered if more than 90% of the readings correspond to regions of homopolymer or of low complexity. Subsequently, cut if the average quality score was less than 25 in a window size equal to 15. After cutting, all readings less than 40 bp were discarded.
Total RNA was isolated from cells grown with Trizol (Ambion, Life Technologies) and purified with a Mini RNAspin kit (GE Healthcare) according to the manufacturer's instructions, with prolonged treatment with DNase I for 1 h.
RNA quality was assessed with an Agilent 2100 Bioanalyzer RNA Pico assay. RNA was quantified using the Rib-Green Quant-iT and RNA reagent kit (Invitrogen, Life Technologies). The messenger RNA (mRNA) was isolated and used to prepare the complementary DNA (cDNA) libraries following the instructions of the TruSeq RNA Sample Prep Kit V2 (Illumina, San Diego, Calif.). Briefly, the mRNA was isolated with oligo-dT and purified. Then, the mRNA was fragmented by heating to 94° C. (4 min) in fragmentation buffer. The double-stranded cDNA was synthesized, repaired at the end and tail A. The sequencing adapters were then attached to the cDNA fragments, according to the manufacturer's protocol. The cDNA fragments were enriched after 15 rounds of PCR amplification. The quality control of the library was assessed by size distribution of the cDNA libraries measured using 2100 Bioanalyzer with DNA1000 assay (Agilent Technologies) and a StepOnePlus real-time PCR system from ABI were used to quantify the sample library before sequencing. The cDNA library was sequenced on the Illumina HiSeq 1500 System, in a final flow cell paired with Rapid in a 200 pair strategy of 2-101 bp pairing strategy.
The in-silico analysis of RNA-Seq comprises several quality steps and transcriptomic quantification algorithms that are understood in the present invention as “pipeline”. (FIG. 19). The quality check was performed using FastQC3. Hisat214 was used to align readings against the horse's reference genome (Equus caballus) (annotation version 89). To map and quantify transcriptions, the feature Counts was used, resulting in a table of genetic IDs versus samples with raw reading counts. Then, differentially expressed genes (DEGs) were calculated using the EdgeR package. Genes with less than one count per million (CPM) were filtered out. The DEGs were calculated by crossing the sample values of a) 6 h after treatment (6 h)×control (0 h); b) 12 h after treatment (12 h)×control; and also, c) 12 h×6 h. DEGs are defined as an absolute value of log 2 fold change between two groups (LFC)>1 and false discovery rate (FDR)<0.05. […]

[1] = in vivo administration, RNA-Seq
[2] = treated equine melanoma tumors, RNA-Seq

B1: Amblyomin-X: recombinant Kunitz type protein identified in a cDNA library of Amblyomma sculptum tick salivary glands (protein)
chain: MRQLAVLALVIFTGMCVESQSANSKAVCNLPKLAGDETCSNKTEIRWYYNGTACEAFIFKGCGGNDNNFDRVDDCQRLCEEQTHFHFESPKLICFKVQDYWILNDIMKKNLTGISLKSEEEDADSGEID
modifications: Amblyomin-X
notes: recombinant Kunitz type protein identified in a cDNA library of Amblyomma sculptum tick salivary glands
With B1 the “logFC6, gene IFIH1” value (RNA-seq, 6 h after treatment) was 0.851, the “logFC6, gene IFIT1” value (RNA-seq, 6 h after treatment) was 2.574 and the “logFC6, gene IL1B” value (RNA-seq, 6 h after treatment) was 4.309. The “logFC6, gene IL1RN” value (RNA-seq, 6 h after treatment) was 2.823, the “logFC6, gene IL13RA1” value (RNA-seq, 6 h after treatment) was 1.408 and the “logFC6, gene IRF9” value (RNA-seq, 6 h after treatment) was 1.136. For the same molecule, the “logFC6, gene ITGA1” value (RNA-seq, 6 h after treatment) was 1.348, the “logFC6, gene MYH1” value (RNA-seq, 6 h after treatment) was −8.4 and the “logFC6, gene MYH3” value (RNA-seq, 6 h after treatment) was −3.643. The “logFC6, gene MYL2” value (RNA-seq, 6 h after treatment) was −8.697, the “logFC6, gene MYLPF” value (RNA-seq, 6 h after treatment) was −5.872 and the “logFC6, gene NTNG1” value (RNA-seq, 6 h after treatment) was −1.959. For the same molecule, the “logFC6, gene OAS2” value (RNA-seq, 6 h after treatment) was 1.463, the “logFC6, gene PARP9” value (RNA-seq, 6 h after treatment) was 1.816 and the “logFC6, gene PER1” value (RNA-seq, 6 h after treatment) was −1.474. The “logFC6, gene PIK3R6” value (RNA-seq, 6 h after treatment) was −1.277, the “logFC6, gene RUNX1” value (RNA-seq, 6 h after treatment) was 1.723 and the “logFC6, gene SAA1” value (RNA-seq, 6 h after treatment) was 3.456. For the same molecule, the “logFC6, gene SELP” value (RNA-seq, 6 h after treatment) was 2.596, the “logFC6, gene SLPI” value (RNA-seq, 6 h after treatment) was 3.009 and the “logFC6, gene SOCS3” value (RNA-seq, 6 h after treatment) was 2.979. The “logFC6, gene STAT1” value (RNA-seq, 6 h after treatment) was 1.085, the “logFC6, gene TAT” value (RNA-seq, 6 h after treatment) was 5.292 and the “logFC6, gene TEAD4” value (RNA-seq, 6 h after treatment) was 1.685. The “logFC6, gene THBS1” value (RNA-seq, 6 h after treatment) was 1.819, the “logFC6, gene TLR2” value (RNA-seq, 6 h after treatment) was 1.5586 and the “logFC6, gene TREM1” value (RNA-seq, 6 h after treatment) was 5.551. The “logFC12, gene ACTN1” value (RNA-seq, 12 h after treatment) was 1.006, the “logFC12, gene BCL3” value (RNA-seq, 12 h after treatment) was 1.709 and the “logFC12, gene BIRC3” value (RNA-seq, 12 h after treatment) was 0.9146. For the same molecule, the “logFC12, gene CAD” value (RNA-seq, 12 h after treatment) was 1.028, the “logFC12, gene CCL2” value (RNA-seq, 12 h after treatment) was 3.517 and the “logFC12, gene CDO1” value (RNA-seq, 12 h after treatment) was −2.408. The “logFC12, gene CTSL” value (RNA-seq, 12 h after treatment) was 1.385, the “logFC12, gene CXCL6” value (RNA-seq, 12 h after treatment) was 3.417 and the “logFC12, gene DDX58” value (RNA-seq, 12 h after treatment) was 1.76. For the same molecule, the “logFC12, gene F12” value (RNA-seq, 12 h after treatment) was 3.104, the “logFC12, gene FOSL1” value (RNA-seq, 12 h after treatment) was 4.028 and the “logFC12, gene FSCN1” value (RNA-seq, 12 h after treatment) was 1.831. The “logFC12, gene HMOX1” value (RNA-seq, 12 h after treatment) was 1.117, the “logFC12, gene HSPA6” value (RNA-seq, 12 h after treatment) was 4.55 and the “logFC12, gene IFI35” value (RNA-seq, 12 h after treatment) was 1.639. For the same molecule, the “logFC12, gene IFIH1” value (RNA-seq, 12 h after treatment) was 1.823, the “logFC12, gene IFIT1” value (RNA-seq, 12 h after treatment) was 2.655 and the “logFC12, gene IL1B” value (RNA-seq, 12 h after treatment) was 3.152. The “logFC12, gene IL1RN” value (RNA-seq, 12 h after treatment) was 2.805, the “logFC12, gene IL13RA1” value (RNA-seq, 12 h after treatment) was 1.28 and the “logFC12, gene IRF9” value (RNA-seq, 12 h after treatment) was 1.462. For the same molecule, the “logFC12, gene ITGA1” value (RNA-seq, 12 h after treatment) was 1.094, the “logFC12, gene MYH1” value (RNA-seq, 12 h after treatment) was −8.31 and the “logFC12, gene MYH3” value (RNA-seq, 12 h after treatment) was 3.004. For the same molecule, the “logFC12, gene MYL2” value (RNA-seq, 12 h after treatment) was −7.917, the “logFC12, gene MYLPF” value (RNA-seq, 12 h after treatment) was −5.428 and the “logFC12, gene NTNG1” value (RNA-seq, 12 h after treatment) was −2.943. For the same molecule, the “logFC12, gene OAS2” value (RNA-seq, 12 h after treatment) was 2.491, the “logFC12, gene PARP9” value (RNA-seq, 12 h after treatment) was 2.109 and the “logFC12, gene PER1” value (RNA-seq, 12 h after treatment) was −1.139. For the same molecule, the “logFC12, gene PIK3R6” value (RNA-seq, 12 h after treatment) was −1.356, the “logFC12, gene RUNX1” value (RNA-seq, 12 h after treatment) was 1.443 and the “logFC12, gene SAA1” value (RNA-seq, 12 h after treatment) was 3.902. The “logFC12, gene SELP” value (RNA-seq, 12 h after treatment) was 2.395, the “logFC12, gene SLPI” value (RNA-seq, 12 h after treatment) was 3.051 and the “logFC12, gene SOCS3” value (RNA-seq, 12 h after treatment) was 2.423. For the same molecule, the “logFC12, gene STAT1” value (RNA-seq, 12 h after treatment) was 1.267, the “logFC12, gene TAT” value (RNA-seq, 12 h after treatment) was 5.521 and the “logFC12, gene TEAD4” value (RNA-seq, 12 h after treatment) was 1.949. The “logFC12, gene THBS1” value (RNA-seq, 12 h after treatment) was 0.8749, the “logFC12, gene TLR2” value (RNA-seq, 12 h after treatment) was 1.839 and the “logFC12, gene TREM1” value (RNA-seq, 12 h after treatment) was 5.559. The “LFC SELE (6 h×0 h)” value (e-selectin (SELE) gene, log2 fold change, 6 h after treatment vs control 0 h, RNA-Seq) was 2.33, the “LFC SELE (12 h×0 h)” value (e-selectin (SELE) gene, log2 fold change, 12 h after treatment vs control 0 h, RNA-Seq) was 1.78 and the “logFC6 BATF3” value (gene BATF3, RNA-seq, 6 hours after treatment) was 3.137. The “logFC12 BATF3” value (gene BATF3, RNA-seq, 12 hours after treatment) was 2.91, the “logFC6 CAV3” value (gene CAV3, RNA-seq, 6 hours after treatment) was −3.0363 and the “logFC12 CAV3” value (gene CAV3, RNA-seq, 12 hours after treatment) was −6.6813. The “logFC6 CCR7” value (gene CCR7, RNA-seq, 6 hours after treatment) was 2.652, the “logFC12 CCR7” value (gene CCR7, RNA-seq, 12 hours after treatment) was 2.359 and the “logFC6 CDH15” value (gene CDH15, RNA-seq, 6 hours after treatment) was −2.616. The “logFC12 CDH15” value (gene CDH15, RNA-seq, 12 hours after treatment) was −1.702, the “logFC6 EIF2AK2” value (gene EIF2AK2, RNA-seq, 6 hours after treatment) was 2.4 and the “logFC12 EIF2AK2” value (gene EIF2AK2, RNA-seq, 12 hours after treatment) was 2.959. The “logFC6 ETV6” value (gene ETV6, RNA-seq, 6 hours after treatment) was 1.795, the “logFC12 ETV6” value (gene ETV6, RNA-seq, 12 hours after treatment) was 1.871 and the “logFC6 IL7R” value (gene IL7R, RNA-seq, 6 hours after treatment) was 2.532. The “logFC12 IL7R” value (gene IL7R, RNA-seq, 12 hours after treatment) was 2.227, the “logFC6 IL18RAP” value (gene IL18RAP, RNA-seq, 6 hours after treatment) was 2.817 and the “logFC12 IL18RAP” value (gene IL18RAP, RNA-seq, 12 hours after treatment) was 2.593. The “logFC6 MYLK2” value (gene MYLK2, RNA-seq, 6 hours after treatment) was −5.152, the “logFC12 MYLK2” value (gene MYLK2, RNA-seq, 12 hours after treatment) was −5.672 and the “logFC6 NECTIN3” value (gene NECTIN3, RNA-seq, 6 hours after treatment) was 1.287. For the same molecule, the “logFC12 NECTIN3” value (gene NECTIN3, RNA-seq, 12 hours after treatment) was 1.113, the “logFC6 NLRC4” value (gene NLRC4, RNA-seq, 6 hours after treatment) was 5.503 and the “logFC12 NLRC4” value (gene NLRC4, RNA-seq, 12 hours after treatment) was 5.687. The “logFC6 NLRP12” value (gene NLRP12, RNA-seq, 6 hours after treatment) was 3.4, the “logFC12 NLRP12” value (gene NLRP12, RNA-seq, 12 hours after treatment) was 2.297 and the “logFC6 OAS3” value (gene OAS3, RNA-seq, 6 hours after treatment) was 1.716. For the same molecule, the “logFC12 OAS3” value (gene OAS3, RNA-seq, 12 hours after treatment) was 2.112, the “logFC6 PRKCQ” value (gene PRKCQ, RNA-seq, 6 hours after treatment) was −1.531 and the “logFC12 PRKCQ” value (gene PRKCQ, RNA-seq, 12 hours after treatment) was −3.021. The “DEG modulation of ACTA1 and ACTN2” value [1] was “high negative regulation”, the “DEG modulation of ACTN1 and ACTR3” value [1] was “positive regulation” and the “DEG modulation of TUBB and TUBB6 (Tubulin family)” value [1] was “positive regulation”. The “expression of Interferons (type 1 interferon, IFN alpha and IFN beta)” value [2] was “does not lead to the detectable expression” and the “expression of the NOXA gene (PMAIP1)” value [2] was “did not induce the detectable expression”.
